T1: extracellular domain (ECD) of recombinant human Sortilin with a C-terminal HIS tag (ECD-huSortilin-HIS) (human, UniProt Q99523 78-755)
T1 construct: Bought (R&D Systems); also called human sortilin-ECD; not shown: C-terminal HIS tag
T1 sequence: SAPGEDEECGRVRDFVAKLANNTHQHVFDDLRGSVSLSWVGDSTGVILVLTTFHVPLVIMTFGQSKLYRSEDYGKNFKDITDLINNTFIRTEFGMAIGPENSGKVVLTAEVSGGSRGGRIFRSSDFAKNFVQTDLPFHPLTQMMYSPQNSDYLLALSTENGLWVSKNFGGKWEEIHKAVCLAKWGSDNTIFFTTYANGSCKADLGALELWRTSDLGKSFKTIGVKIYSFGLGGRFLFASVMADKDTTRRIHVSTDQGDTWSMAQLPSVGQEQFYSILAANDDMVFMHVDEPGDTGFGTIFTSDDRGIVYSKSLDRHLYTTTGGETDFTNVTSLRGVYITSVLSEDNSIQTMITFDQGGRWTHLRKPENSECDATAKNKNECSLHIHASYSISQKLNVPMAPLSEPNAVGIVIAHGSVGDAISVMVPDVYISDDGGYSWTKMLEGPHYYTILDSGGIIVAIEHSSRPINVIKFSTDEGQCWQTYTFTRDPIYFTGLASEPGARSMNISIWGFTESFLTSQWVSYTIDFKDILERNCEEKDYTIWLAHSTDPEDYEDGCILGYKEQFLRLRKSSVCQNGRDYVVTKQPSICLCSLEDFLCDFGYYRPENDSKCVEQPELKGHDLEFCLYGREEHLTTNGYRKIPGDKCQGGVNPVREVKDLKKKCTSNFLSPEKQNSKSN

T2: human sortilin on the cell surface (recombinant huSortilin on HEK 293 cells; endogenous on U251MG cells) (human, UniProt Q99523 78-831)
T2 construct: whole, on cells; also called huSortilin expressing HEK293 cells; cell surface huSortilin
T2 sequence (looked up): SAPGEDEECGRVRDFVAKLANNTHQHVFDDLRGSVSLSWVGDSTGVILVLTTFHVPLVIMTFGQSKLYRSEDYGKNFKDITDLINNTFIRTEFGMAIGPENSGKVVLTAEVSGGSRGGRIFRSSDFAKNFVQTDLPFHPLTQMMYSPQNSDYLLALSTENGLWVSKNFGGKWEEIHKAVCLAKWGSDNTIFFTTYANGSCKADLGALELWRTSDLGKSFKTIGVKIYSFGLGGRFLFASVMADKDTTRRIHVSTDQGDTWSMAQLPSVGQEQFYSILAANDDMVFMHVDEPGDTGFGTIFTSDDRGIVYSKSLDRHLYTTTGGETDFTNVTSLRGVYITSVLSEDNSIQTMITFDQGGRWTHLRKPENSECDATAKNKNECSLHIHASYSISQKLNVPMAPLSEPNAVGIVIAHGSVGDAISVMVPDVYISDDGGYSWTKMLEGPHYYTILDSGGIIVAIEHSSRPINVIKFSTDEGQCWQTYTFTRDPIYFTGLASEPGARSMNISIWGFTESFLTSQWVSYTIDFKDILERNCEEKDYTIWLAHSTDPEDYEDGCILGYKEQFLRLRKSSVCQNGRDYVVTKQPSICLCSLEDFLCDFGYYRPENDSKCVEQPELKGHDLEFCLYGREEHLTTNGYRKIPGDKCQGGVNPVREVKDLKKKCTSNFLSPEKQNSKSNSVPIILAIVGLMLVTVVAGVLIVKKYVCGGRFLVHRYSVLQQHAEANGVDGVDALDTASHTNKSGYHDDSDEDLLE


Experiments:
[1] = molecular target: T1, extracellular domain (ECD) of …; experiment: ELISA, ECD-huSortilin-HIS coated at 1 ug/mL, goat anti-human IgG-HRP, chemiluminescence
Procedure: 384-well ELISA plates were coated with 1 ug/mL recombinant ECD-huSortilin-HIS (20 uL/well) and incubated overnight at 4° C. all plates were blocked with 3% BSA in PBS for 1 hour at room temperature. Plates were then washed with Tris buffered saline containing 0.1% Tween20 (TBST) three times. 20 uL of humanized anti-Sortilin mAbs diluted 3-fold from 20 ug/mL to 0.3 ng/mL in 1% BSA in TBST were added to the wells, incubated for 1 hour at room temperature and then washed as above. Goat anti-human IgG specific-HRP (Jackson Immunoresearch) diluted 1:7000 in 1% BSA in TBST was then added at 20 uL per well to react with the bound antibodies and plates were incubated for 1 hour before being washed as above. Super signal Pico chemiluminescent ELISA substrate (ThermoFisher) was used for detection. 20 uL of substrate was added to each well and Relative Light Units (RLU) were measured immediately using the SpectraMax Paradigm (Molecular Devices). Data was analyzed and EC₅₀ was calculated using graphed Prism.

[2] = molecular target: T1, extracellular domain (ECD) of …; experiment: SPR (Biacore T200), mAb captured by anti-human antibody on CM5, Sortilin 0.1-300 nM as analyte, global 1:1 fit
Procedure: Analysis was performed using a Biacore T200 to compare the binding affinity of chimeric and humanized antibodies to recombinant human Sortilin. Anti-Human antibody was immobilized on sensor chip CM5 (GE Healthcare Life Sciences) via amine coupling, and humanized antibodies (ligand) were captured to a level to ensure a maximum binding of analyte of 50 RU (approximately 100 RU of ligand binding). Various concentrations of Sortilin (ranging from 0.1 nM to 300 nM) were passed over the captured ligand at 50 μL/min in running buffer (HBS+0.05% P-20, 1 mg/mL BSA) for 300s association time and 1200s dissociation time. Regeneration of the chip surface was accomplished by 2 short injections of 3M MgCl. Data was blank subtracted to both a sensor not containing ligand and 0 nM analyte concentration. Analysis was performed using a global 1:1 fit with Biacore Insight Evaluation software (v2.0) with bulk refractive index set to zero RU.

[3] = molecular target: T2, human sortilin on the cell surface …; experiment: cell-based blocking titration (flow cytometry), huSortilin HEK293 cells; blocked ligand 30 nM huPGRN-Biotin
Procedure: Cells were cultured using standard methods. […] Cells were then washed twice in PBS+2% FBS and incubated for 30 minutes on ice with 50 uL per well 1:200 Steptavidin-APC (BD biosciences) in PBS+2% FBS. Cells were then washed as above and resuspended in 100 uL PBS+2% FBS. Data was acquired using the BD LSR II and analyzed using FlowJo software version 10.6 and Microsoft excel.
The cell-based blocking assay was repeated with the top 12 blocking mAbs using a dose titration from 67 nM to 0.4 nM. Blocking assay was carried out as above. Data was analyzed using FlowJo software version 10.6. and GraphPad Prism software.

[4] = molecular target: T1, extracellular domain (ECD) of …; experiment: blocking ELISA, coated ECD-huSortilin-HIS; blocked ligand huPGRN-Biotin
[5] = molecular target: T1, extracellular domain (ECD) of …; experiment: ELISA, Ab binding to hSortilin-ECD
Procedure: Purified anti-huSortilin mAb binding to huSortilin was characterized by ELISA (ELISA protocol as in Example 1) using a 12 point titration of mAb concentration. mAbs were diluted 2-fold from a starting concentration of 67 nM and then added to ECD-huSortilin-HIS coated plates. Data was analyzed and EC₅₀ (nM) was calculated using graphed Prism. Commercially available goat anti-huSortilin (R&D Biosystems) was used as a positive control. Results are depicted in FIG. 8.

[6] = molecular target: T1, extracellular domain (ECD) of …; experiment: SPR (Biacore T200), mAb captured by anti-mouse antibody on CM5, Sortilin 0.1-300 nM as analyte, global 1:1 fit
Procedure: Analysis was performed using a Biacore T200 to compare the binding affinity of murine anti-huSortilin antibodies to recombinant human Sortilin. Anti-mouse antibody was immobilized on sensor chip CM5 (GE Healthcare Life Sciences) via amine coupling, and mouse antibodies (ligand) were captured to a level to ensure a maximum binding of analyte of 50 RU (approximately 100RU of ligand binding). Various concentrations of Sortilin (ranging from 0.1 nM to 300 nM) were passed over the captured ligand at […] in running buffer (HBS+0.05% P-20, 1 mg/mL BSA) for 180-300s association time and 300-900s dissociation time. Regeneration of the chip surface was accomplished by 2 short injections of 10 mM Glycine-HCl at pH 1.7. Data was blank subtracted to both a sensor not containing ligand and 0 nM analyte concentration. Analysis was performed using a global 1:1 fit with Biacore Insight Evaluation software (v2.0) with bulk refractive index set to zero RU.

Row | Binder | EC50 [1] [µg/mL] | Kd [2] [nM] | % Max blocking at 11nM mAb [3] [%] | % Blocking at 7.4nM mAb [4] [%] | EC50 [5] [nM] | Kd [6] [nM] | koff [2] [s⁻¹] | kon [2] [M⁻¹ s⁻¹]
1 | chimeric 5E20 (antibody, human IgG1, kappa, L234A L235A, V domains shown, The entries are described as 'a chimeric 5E20 heavy chain' and 'light chain') VH: EVQLVESGGDLVKPGGSLKLSCAAPGFTFSTYGMSWVRQTPDKRLEWVAIISSGGSYTYYSDTVKGRFTISRDNAKNTLYLQMSSLKSEDTAMYYCSRSSSHWYFDVWGTGTTVTVSS VL: DILMTQSPSSMSVSLGDTVSITCHASQGISSNIGWLQQKPGKSFKGLIYHGTNLKDGVPSRFSGSGSGADFSLTISSLESEDFADYFCVQYAQFPYTFGGGTKLEIKR | 0.07 | 0.66 |  |  |  |  |  | 
2 | mouse monoclonal antibody 2C14 (antibody, mouse IgG1, V domains shown, mouse IgG1, kappa) VH: EVQLVESGGDLVKPGGSLKLSCAASGFTFNTHGMSWVRQTPDKSLEWVATISTGGFYTSYPDSVKGRFTISRDNAKNTLFLQMSSLKSEDTAMYYCAKSSSHWYFDVWGTGTTVTVSS VL: DILMTQSPSSMSVSLGDTVSITCHASQGISSNIGWLQQKPGKSFKGLIYHGTNLEDGVPSRFSGSGSGADYSLTISSLEYEDFADYYCVQYAHFPYTFGGGTKLEIK |  |  | 64 | 79 | 1 | 11.8 |  | 
3 | humanized 8H24 hu8H24VHv1/hu8H24VLv1 (antibody, V domains shown, Human IgG; also called 8H24H1L1) VH: QAQLVQSGAEVKKPGSSVKVSCKASGYTFTSYSMHWVRQAPGQGLEWIGAIYPGNDATSYNQKFKGRATLTVDKSTSTAYMELSSLRSEDTAVYFCAREGYYGSSFEAWFASWGQGTTVTVSS VL: DVVMTQTPLSLPVTPGEPASISCRSSQSIVHSNGNTYLEWYLQKPGQSPQLLIYKVSNRFSGVPDRFSGSGSGTDFTLKISRVEAEDVGVYYCFQGSHVLPTFGGGTKVEIK | 0.14 | 2.22 |  |  |  |  | 0.00141 | 637000
4 | humanized 8H24 hu8H24VHv2/hu8H24VLv1 (antibody, V domains shown, Human IgG; also called 8H24H2L1) VH: QAQLVQSGAEVVKPGSSVKVSCKASGYTFTSYSMHWVRQAPGQGLEWIGAIYPGNDATSYNQKFKGRATLTVDKSTSTAYMELSSLRSEDTAVYFCAREGYYGSSFEAWFASWGQGTTVTVSS VL: DVVMTQTPLSLPVTPGEPASISCRSSQSIVHSNGNTYLEWYLQKPGQSPQLLIYKVSNRFSGVPDRFSGSGSGTDFTLKISRVEAEDVGVYYCFQGSHVLPTFGGGTKVEIK | 0.06 | 2.29 |  |  |  |  | 0.00157 | 684000
5 | humanized 8H24 hu8H24VHv1/hu8H24VLv2 (antibody, V domains shown, Human IgG; also called 8H24H1L2; hu8H24H1L2) VH: QAQLVQSGAEVKKPGSSVKVSCKASGYTFTSYSMHWVRQAPGQGLEWIGAIYPGNDATSYNQKFKGRATLTVDKSTSTAYMELSSLRSEDTAVYFCAREGYYGSSFEAWFASWGQGTTVTVSS VL: DVVMTQTPSSLPVTPGEPASISCRSSQSIVHSNGNTYLEWYLQKPGQSPQLLIYKVSNRFSGVPDRFSGSGSGTDFTLTISRVEAEDVGVYYCFQGSHVLPTFGGGTKVEIK | 0.1 | 2.98 |  |  |  |  | 0.00134 | 450000
6 | humanized 8H24 hu8H24VHv2/hu8H24VLv2 (antibody, V domains shown, Human IgG; also called 8H24H2L2) VH: QAQLVQSGAEVVKPGSSVKVSCKASGYTFTSYSMHWVRQAPGQGLEWIGAIYPGNDATSYNQKFKGRATLTVDKSTSTAYMELSSLRSEDTAVYFCAREGYYGSSFEAWFASWGQGTTVTVSS VL: DVVMTQTPSSLPVTPGEPASISCRSSQSIVHSNGNTYLEWYLQKPGQSPQLLIYKVSNRFSGVPDRFSGSGSGTDFTLTISRVEAEDVGVYYCFQGSHVLPTFGGGTKVEIK | 0.07 | 3.22 |  |  |  |  | 0.0015 | 466000
7 | mouse monoclonal antibody 9N18 (antibody, mouse IgG2b, V domains shown, mouse IgG2b, kappa) VH: EIQLQQSGPELVKPGASVKISCKASGYSFTGYYMNWVKQSPEKSLEWIGEINPITGGTTYNQNFKAKATLTVDKSSSTAYLQLRSLTSEDSAVYYCASDYFGSNSWFAYWGQGTLVTVSA VL: DVLMTQTPLSLPVSLGDQASISCRSSQSIVHRNGNTYLEWYLQKPGQSPKLLIYKVSNRFSGVPDRFSGSGSGTDFTLRISRVEAEDLGVYYCFQGSHVPYTFGGGTKLEIK |  |  | 45 | 65 | 0.8 |  |  | 
